Reference: patent US11493476B2, “Charge detector and process for sensing a charged analyte” (Government of the United States of America, as represented …, priority 2016, dated 2022)

Key:
Type in all cases: biochemical
Cdk5/p25 [1] = molecular target: T1, Cdk5/p25 (Homo sapiens, UniProt Q00535); assay: Ionic liquid-gated FET measurement of solution pH change during Cdk5/p25-catalysed phosphorylation of histone H1, steady state; conditions: FET measurements, non-linear regression, measured differentially against control without ATP
T1 sequence (Q00535 whole entry, species assumed, the tested form may be a part): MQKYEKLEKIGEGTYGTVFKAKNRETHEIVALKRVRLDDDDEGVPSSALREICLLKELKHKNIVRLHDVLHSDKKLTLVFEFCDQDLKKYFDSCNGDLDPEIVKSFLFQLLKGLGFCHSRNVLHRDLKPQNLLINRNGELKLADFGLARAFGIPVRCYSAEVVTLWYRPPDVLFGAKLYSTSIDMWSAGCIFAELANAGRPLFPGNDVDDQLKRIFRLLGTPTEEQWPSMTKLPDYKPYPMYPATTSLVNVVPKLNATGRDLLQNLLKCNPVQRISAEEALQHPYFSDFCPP
T1 sequence (Q15078 99-307 partner limits assumed, species assumed): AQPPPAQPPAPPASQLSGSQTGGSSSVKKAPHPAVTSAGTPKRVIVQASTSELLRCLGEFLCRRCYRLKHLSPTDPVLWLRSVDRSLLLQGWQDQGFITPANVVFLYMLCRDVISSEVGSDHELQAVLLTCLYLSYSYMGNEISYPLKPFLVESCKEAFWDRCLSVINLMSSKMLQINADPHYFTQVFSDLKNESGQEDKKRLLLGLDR
Description: With regard to enzyme activity and kinetics, the ultrasensitive FET devices measured activity and kinetics of proline directed kinase Cdk5. Under normal physiological conditions, Cdk5 is tightly regulated by either the p35 or p39 […] proteins. Oxidative stress causes a 10 kDa membrane anchored fragment of p35 to be cleaved, forming the pathological activator p25, resulting in deregulation and delocalization of the complex to the cytosol. […]
Cdk5 mediated phosphorylation results in the release of a proton during ATP hydrolysis and the transfer of a single phosphate group to either a serine or threonine residue immediately preceding a proline. Here, ionic liquid-gated FETs detected small changes in the solution pH during phosphorylation of the substrate protein, histone H1.
In each case, Vt,BG was estimated from an ID-VBG plot. To account for instrument drift, each data point in the figure was measured differentially with a control sample that was identical to the measured vials except for the absence of ATP, thereby inhibiting the phosphorylation reaction. […]
[formula] where k is a constant, [H1] is the concentration of histone H1 and γ is a scaling constant. For the FET measurements in FIG. 54, we estimated k=17.5±1.3 μM from a non-linear regression of the model to the measured data, consistent with previously published activity measurements for the pathological Cdk5/p25 complex. […]

Cdk5/p25 [2] = molecular target: T1, Cdk5/p25; assay: Radioactively labeled γ-32P-ATP enzyme activity assay; conditions: radioactively labeled γ-32P-ATP assay
Cdk5/p25 [3] = molecular target: T1, Cdk5/p25; assay: FET time-series measurement of enzyme catalyzed phosphorylation (reaction kinetics); conditions: Cdk5/p25 3.8 μM; [H1] 9.1, 12.7, 18.2 μM; independent of the histone H1 concentration
Description: With reference to FIG. 53, FIG. 54, FIG. 55, and FIG. 56, ionic liquid-gate field-effect transistors (FET) were used for label-free enzyme activity and kinetics measurements. The proline directed kinase Cdk5 catalyzes the phosphorylation of substrate proteins (e.g., histone H1) in the presence of an activator (e.g., p25) and adenosine triphosphate (ATP). The hydrolysis of ATP results in the transfer of a single phosphate group to either a serine (Ser) or threonine (Thr) residue in the substrate protein and the release of a proton into solution, resulting in a change in solution pH. Moreover, ionic liquid-gate FETs measured change in solution pH as a function of the histone H1 concentration ([H1]) inferentially provide activity of Cdk5 under steady-state conditions. FET measurements were in quantitative agreement with a complementary assay that used radioactively labeled 32P-ATP as a reporter of Cdk5 activity. Time-series measurements of enzyme catalyzed phosphorylation as a function of [H1] […] The solid lines depict the reaction kinetics model that describes the time course of phosphorylation, while the dashed lines represent an estimate of the reaction velocity during the first 100 s after a change in the signal was detected.
The concentration of the Cdk5/p25 complex in these measurements was 3.8 μM (5-fold lower than the quantity used in FIG. 54 and FIG. 55). […]

rate constant k1 (first order rate law) (Cdk5/p25 [3]): 0.18±0.02 per min
Substance: histone H1
k (constant of kinase activity model versus histone H1 concentration) (Cdk5/p25 [1]): 17.5 ± 1.3 µM
k (constant of kinase activity model versus histone H1 concentration) (Cdk5/p25 [2]): 12.1 ± 2.3 µM
